The values that follow come from publication PMC9198467 (The Journal of Biological Chemistry, 2022).

This test has as its target His-DnaB helicase (E. coli, UniProt P0ACB0 1-471). In words: pull-down.

Chain of His-DnaB helicase (P0ACB0 whole entry): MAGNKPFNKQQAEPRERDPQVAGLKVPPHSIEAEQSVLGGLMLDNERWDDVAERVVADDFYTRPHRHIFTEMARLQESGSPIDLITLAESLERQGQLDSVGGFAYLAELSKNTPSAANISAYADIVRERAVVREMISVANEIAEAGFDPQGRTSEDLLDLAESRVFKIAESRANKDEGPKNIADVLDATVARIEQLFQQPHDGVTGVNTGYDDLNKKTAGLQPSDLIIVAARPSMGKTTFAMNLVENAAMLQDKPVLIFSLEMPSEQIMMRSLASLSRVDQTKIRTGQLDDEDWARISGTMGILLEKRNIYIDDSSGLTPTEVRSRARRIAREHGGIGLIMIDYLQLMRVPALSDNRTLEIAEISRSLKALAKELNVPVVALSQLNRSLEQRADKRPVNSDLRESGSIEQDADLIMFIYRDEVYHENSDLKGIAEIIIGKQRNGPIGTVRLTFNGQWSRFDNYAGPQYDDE

B1: Escherichia coli DnaA, ATP-bound form (ATP–DnaA), wild type (natural protein, E. coli, UniProt P03004 1-467, looked up)
chain: MSLSLWQQCLARLQDELPATEFSMWIRPLQAELSDNTLALYAPNRFVLDWVRDKYLNNINGLLTSFCGADAPQLRFEVGTKPVTQTPQAAVTSNVAAPAQVAQTQPQRAAPSTRSGWDNVPAPAEPTYRSNVNVKHTFDNFVEGKSNQLARAAARQVADNPGGAYNPLFLYGGTGLGKTHLLHAVGNGIMARKPNAKVVYMHSERFVQDMVKALQNNAIEEFKRYYRSVDALLIDDIQFFANKERSQEEFFHTFNALLEGNQQIILTSDRYPKEINGVEDRLKSRFGWGLTVAIEPPELETRVAILMKKADENDIRLPGEVAFFIAKRLRSNVRELEGALNRVIANANFTGRAITIDFVREALRDLLALQEKLVTIDNIQKTVAEYYKIKVADLLSKRRSRSVARPRQMAMALAKELTNHSLPEIGDAFGGRDHTTVLHACRKIEQLREESHDIKEDFSNLIRTLSS
For B1, the binding result is recorded as “binds”.
